Measured values taken from publication PMC8052502, “Enzyme kinetic and binding studies identify determinants of specificity for the immunomodulatory enzyme ScpA, a C5a inactivating bacterial protease” (Computational and Structural Biotechnology Journal, 2012).

Experiments:
[1] = molecular target: recombinant ScpA, residues 31-1032 (active Streptococcal C5a peptidase) (Streptococcus pyogenes) (UniProt P15926)
[2] = molecular target: recombinant human C5a des Arg (rhC5adR), N-ter hexa-histidine tagged (human); experiment: SPR; His-tagged C5a peptide immobilised on NTA sensor chip (30-40 RU), ScpA_(S512A) flowed over; 25 °C; 10 mM Hepes-KOH pH 7.5, 150 mM NaCl, 0.005% Tween 20, 50 μM EDTA; 1:1 Langmuir model with drifting baseline
[3] = molecular target: rhC5a_(K12A,K14A) (human); experiment: as above
[4] = molecular target: rhC5a_(K49A) (human); experiment: as above
[5] = molecular target: rhC5a_(K4A,K5A) (human); experiment: as above
[6] = molecular target: rhC5a_(R37A) (human); experiment: as above
[7] = molecular target: rhC5a_(R40A) (human); experiment: as above
[8] = molecular target: rhC5a_(R46A) (human); experiment: as above
[9] = molecular target: rhC5a_(core), N-terminal cleavage product (PN) of rhC5a, residues 1-67 (human); experiment: as above
[10] = molecular target: T1, ScpA_(S512A), active site serine to alanine mutant of recombinant Streptococcal C5a peptidase ScpA, residues … (Streptococcus pyogenes, UniProt P15926 31-1032, S512A); experiment: SPR; His-tagged rhC5a immobilised on NTA sensor chip, ScpA_(S512A) flowed over; 25 °C; Hepes buffer with 350 mM NaCl; 1:1 Langmuir model; details: both partners purified
T1 construct: mimics the form released from the cell surface by SpeB; catalytic residues D130, H193, S512; also called S512A active site mutant of ScpA; source: recombinant, from plasmid pGEX ScpA_((31-1032)) mutated with QuickChange II; purified
T1 sequence: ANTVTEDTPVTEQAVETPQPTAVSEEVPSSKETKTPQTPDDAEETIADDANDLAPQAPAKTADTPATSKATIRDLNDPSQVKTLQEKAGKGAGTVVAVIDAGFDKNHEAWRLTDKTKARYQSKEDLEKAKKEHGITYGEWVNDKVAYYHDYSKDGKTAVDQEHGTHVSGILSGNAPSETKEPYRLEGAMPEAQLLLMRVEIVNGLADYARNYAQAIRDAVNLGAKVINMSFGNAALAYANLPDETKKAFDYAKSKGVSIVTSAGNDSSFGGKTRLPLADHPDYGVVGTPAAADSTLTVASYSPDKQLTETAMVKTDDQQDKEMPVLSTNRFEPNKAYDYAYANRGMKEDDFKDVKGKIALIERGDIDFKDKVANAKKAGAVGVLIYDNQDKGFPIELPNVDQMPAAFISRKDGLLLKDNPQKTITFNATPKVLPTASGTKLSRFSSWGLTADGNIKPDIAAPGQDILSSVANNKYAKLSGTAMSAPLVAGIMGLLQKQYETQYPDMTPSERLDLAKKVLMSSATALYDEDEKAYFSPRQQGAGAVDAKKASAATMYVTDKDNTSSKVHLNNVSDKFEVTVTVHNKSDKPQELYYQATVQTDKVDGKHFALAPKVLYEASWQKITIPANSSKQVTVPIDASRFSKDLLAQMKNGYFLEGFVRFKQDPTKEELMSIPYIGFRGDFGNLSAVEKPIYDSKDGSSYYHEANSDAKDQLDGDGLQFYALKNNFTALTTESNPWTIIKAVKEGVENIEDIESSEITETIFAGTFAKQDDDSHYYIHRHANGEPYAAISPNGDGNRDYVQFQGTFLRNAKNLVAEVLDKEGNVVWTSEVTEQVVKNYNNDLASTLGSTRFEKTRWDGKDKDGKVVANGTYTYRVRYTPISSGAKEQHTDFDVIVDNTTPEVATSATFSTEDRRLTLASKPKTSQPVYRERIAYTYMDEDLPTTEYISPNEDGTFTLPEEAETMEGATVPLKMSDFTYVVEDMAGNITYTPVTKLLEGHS

[11] = molecular target: T1, ScpA_(S512A), active site serine to …; experiment: SPR; His-tagged rhC5a immobilised on NTA sensor chip, ScpA_(S512A) flowed over; 25 °C; Hepes buffer with 550 mM NaCl; 1:1 Langmuir model; details: both partners purified
[12] = molecular target: T1, ScpA_(S512A), active site serine to …; experiment: SPR; His-tagged rhC5a immobilised on NTA sensor chip, ScpA_(S512A) flowed over; 25 °C; Hepes buffer with 750 mM NaCl; 1:1 Langmuir model; details: both partners purified
[13] = molecular target: T1, ScpA_(S512A), active site serine to …; experiment: SPR; His-tagged rhC5a immobilised on NTA sensor chip, ScpA_(S512A) flowed over; 25 °C; Hepes buffer with 950 mM NaCl; 1:1 Langmuir model; details: both partners purified
[14] = molecular target: T1, ScpA_(S512A), active site serine to …; experiment: ITC; ScpA_(S512A) (18 μM) in the cell titrated with 170 μM rhC5a; 25 °C; 50 mM Hepes-KOH pH 7.5, 150 mM NaCl; one set of sites model; KD^ITC derived from KA; details: both partners purified
[15] = molecular target: T1, ScpA_(S512A), active site serine to …; experiment: SPR; His-tagged C5a peptide immobilised on NTA sensor chip (30-40 RU), ScpA_(S512A) flowed over; 25 °C; 10 mM Hepes-KOH pH 7.5, 150 mM NaCl, 0.005% Tween 20, 50 μM EDTA; 1:1 Langmuir model with drifting baseline; details: both partners purified
[16] = molecular target: T1, ScpA_(S512A), active site serine to …; experiment: SPR; competition in solution: 40 RU HT-rhC5a_(core) immobilised on NTA chip; ScpA_(S512A) (700 nM) pre-incubated with rhC5a-HT (0-2000 nM) 1 hr on ice in SPR running buffer, then injected; Req fitted by the method of Morelock et al. to give KD^Sol; details: both partners purified

**Q.** Which Km of cleavage of rhC5aC75-BODIPY (16-500 nM) by 180 pM ScpA, fluorescence progress curves, 25 °C, PBS with 0.1% Tween 20 [1] does the source give for “doubly BODIPY labelled His-tagged rhC5aC75 (rhC5aC75-BODIPY) (natural protein)” here?
**A.** Its Km of cleavage of rhC5aC75-BODIPY (16-500 nM) by 180 pM ScpA, fluorescence progress curves, 25 °C, PBS with 0.1% Tween 20 is 185 nM.

B1: ScpA_(S512A), active site serine to alanine mutant of recombinant Streptococcal C5a peptidase ScpA, residues 31-1032 (enzyme)
chain: T1 sequence
**Q.** Which Kd [2] does the source give for B1 here?
**A.** The Kd was 191 nM.

**Q.** What about the koff [2] of the same molecule?
**A.** The koff was 0.0118 s⁻¹.

**Q.** And the kon [2]?
**A.** The kon was 61700 M⁻¹ s⁻¹.

**Q.** And the Kd [3]?
**A.** Its Kd is 25.6 nM.

**Q.** And the koff [3]?
**A.** The koff was 0.00405 s⁻¹.

**Q.** What about the kon [3] of the same molecule?
**A.** The kon was 158000 M⁻¹ s⁻¹.

**Q.** And the Kd [4]?
**A.** The Kd was 26 nM.

**Q.** What about the koff [4] of the same molecule?
**A.** Its koff is 0.005 s⁻¹.

**Q.** What about the kon [4] of the same molecule?
**A.** Its kon is 195000 M⁻¹ s⁻¹.

**Q.** What about the Kd [5] of the same molecule?
**A.** The Kd was 32.5 nM.

**Q.** What about the koff [5] of the same molecule?
**A.** The koff was 0.00583 s⁻¹.

**Q.** What about the kon [5] of the same molecule?
**A.** Its kon is 180000 M⁻¹ s⁻¹.

**Q.** What about the Kd [6] of the same molecule?
**A.** The Kd was 217 nM.

**Q.** What about the koff [6] of the same molecule?
**A.** The koff was 0.0176 s⁻¹.

**Q.** What about the kon [6] of the same molecule?
**A.** The kon was 81200 M⁻¹ s⁻¹.

**Q.** What about the Kd [7] of the same molecule?
**A.** The Kd was 234 nM.

**Q.** And the koff [7]?
**A.** Its koff is 0.0205 s⁻¹.

**Q.** And the kon [7]?
**A.** Its kon is 88000 M⁻¹ s⁻¹.

**Q.** What about the Kd [8] of the same molecule?
**A.** The Kd was 162 nM.

**Q.** What about the koff [8] of the same molecule?
**A.** The koff was 0.0178 s⁻¹.

**Q.** And the kon [8]?
**A.** The kon was 111000 M⁻¹ s⁻¹.

**Q.** What about the Kd [9] of the same molecule?
**A.** Its Kd is 240 nM.

**Q.** What about the koff [9] of the same molecule?
**A.** The koff was 0.0085 s⁻¹.

**Q.** And the kon [9]?
**A.** The kon was 35200 M⁻¹ s⁻¹.

B2: recombinant human C5a, N-ter hexa-histidine tagged (rhC5a) (natural protein, UniProt P01031 678-751, looked up)
chain: TLQKKIEEIAAKYKHSVVKKCCYDGACVNNDETCEQRAARISLGPRCIKAFTECCVVASQLRANISHKDMQLGR
modifications: β-mercaptoethanol added to C27 in the refolding process
notes: numbers count on: the mature C5a (1-74); His-tagged form immobilised on the NTA chip in SPR; also called full length rhC5a; not shown: His6, N-terminal, kept
**Q.** With B2 as the molecule, how does the Kd [10] read?
**A.** Its Kd is 63.5 nM.

**Q.** What about the koff [10] of the same molecule?
**A.** Its koff is 0.00431 s⁻¹.

**Q.** And the kon [10]?
**A.** Its kon is 68500 M⁻¹ s⁻¹.

**Q.** And the Kd [11]?
**A.** The Kd was 140 nM.

**Q.** And the koff [11]?
**A.** The koff was 0.0054 s⁻¹.

**Q.** And the kon [11]?
**A.** The kon was 39200 M⁻¹ s⁻¹.

**Q.** And the Kd [12]?
**A.** The Kd was 256 nM.

**Q.** And the koff [12]?
**A.** The koff was 0.00651 s⁻¹.

**Q.** What about the kon [12] of the same molecule?
**A.** Its kon is 25600 M⁻¹ s⁻¹.

**Q.** And the Kd [13]?
**A.** Its Kd is 466 nM.

**Q.** What about the koff [13] of the same molecule?
**A.** Its koff is 0.0091 s⁻¹.

**Q.** And the kon [13]?
**A.** Its kon is 19500 M⁻¹ s⁻¹.

**Q.** And the Kd [14]?
**A.** The Kd was 30.8 nM.

**Q.** What about the dH [14] of the same molecule?
**A.** The dH was -9.4 kcal/mol.

**Q.** What about the Kd [15] of the same molecule?
**A.** The Kd was 34 nM.

**Q.** What about the koff [15] of the same molecule?
**A.** The koff was 0.0044 s⁻¹.

**Q.** What about the kon [15] of the same molecule?
**A.** Its kon is 131000 M⁻¹ s⁻¹.

B3: His-tagless form of rhC5a (rhC5a-HT) (natural protein, human, UniProt P01031 678-751, looked up)
chain: B2 chain
modifications: β-mercaptoethanol added to C27 in the refolding process
notes: numbers count on: the mature C5a (1-74); also called rhC5a-HT(sol); tag-less form rhC5a; source: recombinant rhC5a (pProExHTb) treated with TEV protease (Sigma Merck) to remove the His tag; not shown: His6, N-terminal, cleaved
**Q.** B3 was tested. Which Kd [16] did it give?
**A.** Its Kd is 11.1 nM.
